“Also recorded” adds a separate entry of the source.
Biological target: T1, corin WT (Homo sapiens, UniProt Q9Y5Q5)
T1 construct: expressed in transfected cells; host or cells: HEK293
T1 sequence (Q9Y5Q5 1-1042): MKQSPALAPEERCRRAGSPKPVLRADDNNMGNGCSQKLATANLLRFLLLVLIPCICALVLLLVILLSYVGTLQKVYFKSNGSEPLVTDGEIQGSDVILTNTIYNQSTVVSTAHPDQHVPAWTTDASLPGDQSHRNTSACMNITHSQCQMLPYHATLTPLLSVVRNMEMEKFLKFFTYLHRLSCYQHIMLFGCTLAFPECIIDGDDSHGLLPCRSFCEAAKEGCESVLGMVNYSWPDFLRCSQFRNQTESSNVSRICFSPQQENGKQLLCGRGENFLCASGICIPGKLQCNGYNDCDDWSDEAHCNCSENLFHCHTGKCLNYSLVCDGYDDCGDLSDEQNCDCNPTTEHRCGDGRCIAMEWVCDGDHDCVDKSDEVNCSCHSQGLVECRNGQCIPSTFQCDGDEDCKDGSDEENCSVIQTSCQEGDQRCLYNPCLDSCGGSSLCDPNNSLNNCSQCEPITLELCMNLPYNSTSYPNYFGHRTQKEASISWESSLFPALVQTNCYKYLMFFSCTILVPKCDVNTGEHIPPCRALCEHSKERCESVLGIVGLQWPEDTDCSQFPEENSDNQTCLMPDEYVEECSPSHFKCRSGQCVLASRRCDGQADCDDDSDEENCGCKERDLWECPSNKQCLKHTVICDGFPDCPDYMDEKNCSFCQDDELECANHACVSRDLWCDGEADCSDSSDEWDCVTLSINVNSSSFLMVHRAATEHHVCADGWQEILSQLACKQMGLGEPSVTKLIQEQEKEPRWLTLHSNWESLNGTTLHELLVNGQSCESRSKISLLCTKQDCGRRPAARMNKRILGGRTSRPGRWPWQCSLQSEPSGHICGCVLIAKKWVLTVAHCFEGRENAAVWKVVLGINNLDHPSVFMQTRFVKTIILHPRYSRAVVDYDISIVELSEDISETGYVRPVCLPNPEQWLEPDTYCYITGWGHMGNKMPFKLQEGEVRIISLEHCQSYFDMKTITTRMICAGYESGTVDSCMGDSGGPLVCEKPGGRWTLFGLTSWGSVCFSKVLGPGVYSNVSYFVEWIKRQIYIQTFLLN
Test: Corin activation by purified PCSK6 on HEK293 cells, corin WT
Assay type: cell-based
Details: increasing concentrations, 2 h, 37° C.
Protocol: HEK293 and HL-1 cells expressing recombinant corin in 6-well plates were incubated with 1.5 mL (200 μM) of membrane impermeable Sulfo-NHS-SS-biotin for 5 min. Qi et al., J Biol Chem 286, 20963-20969 (2011). A quenching solution was added to the wells and incubated on ice for 10 min. Cells were lysed in the lysis buffer. Labeled proteins were isolated with avidin-coupled agarose beads and analyzed by Western blotting.
Stable HEK293 cells were established to produce human PCSK6 with a C-terminal flag tag. The cells were cultured in DMEM with 10% FBS and 600 μg/mL G418. At confluency, the cells were washed with PBS and cultured with Reduced-Serum Medium. After 72 h, the conditioned medium was collected, centrifuged (10 min at 17,000 g) to remove cell debris, and concentrated to ⅕ of the original volume using a Centrifugal filter unit at 4° C. The concentrated medium was incubated with anti-flag M2 affinity bead slurry in a volume ratio of 25:1 on a rotator at 4° C. for 2 h. […] After centrifugation, the supernatant containing purified PCSK6 was collected, and analyzed by SDS-PAGE followed by silver staining and Western blotting.
Stable HEK293 cells expressing human corin were cultured in 6-well plates in DMEM with 10% FBS and 2 μM monensin. […] After 2 h, cell surface proteins were labeled and corin protein was analyzed by Western blotting.

B1: proprotein convertase subtilisin/kexin-6 (protein, listed as Homo sapiens)
chain: MPPRAPPAPGPRPPPRAAAATDTAAGAGGAGGAGGAGGPGFRPLAPRPWRWLLLLALPAACSAPPPRPVYTNHWAVQVLGGPAEADRVAAAHGYLNLGQIGNLEDYYHFYHSKTFKRSTLSSRGPHTFLRMDPQVKWLQQQEVKRRVKRQVRSDPQALYFNDPIWSNMWYLHCGDKNSRCRSEMNVQAAWKRGYTGKNVVVTILDDGIERNHPDLAPNYDSYASYDVNGNDYDPSPRYDASNENKHGTRCAGEVAASANNSYCIVGIAYNAKIGGIRMLDGDVTDVVEAKSLGIRPNYIDIYSASWGPDDDGKTVDGPGRLAKQAFEYGIKKGRQGLGSIFVWASGNGGREGDYCSCDGYTNSIYTISVSSATENGYKPWYLEECASTLATTYSSGAFYERKIVTTDLRQRCTDGHTGTSVSAPMVAGIIALALEANSQLTWRDVQHLLVKTSRPAHLKASDWKVNGAGHKVSHFYGFGLVDAEALVVEAKKWTAVPSQHMCVAASDKRPRSIPLVQVLRTTALTSACAEHSDQRVVYLEHVVVRTSISHPRRGDLQIYLVSPSGTKSQLLAKRLLDLSNEGFTNWEFMTVHCWGEKAEGQWTLEIQDLPSQVRNPEKQGKLKEWSLILYGTAEHPYHTFSAHQSRSRMLELSAPELEPPKAALSPSQVEVPEDEEDYTAQSTPGSANILQTSVCHPECGDKGCDGPNADQCLNCVHFSLGSVKTSRKCVSVCPLGYFGDTAARRCRRCHKGCETCSSRAATQCLSCRRGFYHHQEMNTCVTLCPAGFYADESQKNCLKCHPSCKKCVDEPEKCTVCKEGFSLARGSCIPDCEPGTYFDSELIRCGECHHTCGTCVGPGREECIHCAKNFHFHDWKCVPACGEGFYPEEMPGLPHKVCRRCDENCLSCAGSSRNCSRCKTGFTQLGTSCITNHTCSNADETFCEMVKSNRLCERKLFIQFCCRTCLLAG
modifications: C-terminal FLAG tag
With B1 the “activation of corin on the cell surface by purified recombinant PCSK6” value was “activated corin on the surface of HEK293 cells in a dose-depending manner; also recorded: activated corin WT”.

From patent publication US10314894B2, “Treatment of cardio-renal disease using PCSK6” (THE CLEVELAND CLINIC FOUNDATION, priority 2014, dated 2019)
